Assay [1] addresses Escherichia coli heat labile toxin B subunit, pentameric, recombinant (Escherichia coli) (UniProt P32890). The assay is described as follows: ELISA.
Assay [2] addresses cholera toxin B subunit, pentameric, recombinant (Vibrio cholerae) (UniProt P01556). Description: ELISA.
UniProt P01556, sequence (P01556 22-124): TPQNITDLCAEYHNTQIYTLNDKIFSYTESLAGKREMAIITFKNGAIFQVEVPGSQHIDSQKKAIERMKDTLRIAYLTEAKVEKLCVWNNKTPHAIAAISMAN

UniProt P32890, sequence (P32890 22-124): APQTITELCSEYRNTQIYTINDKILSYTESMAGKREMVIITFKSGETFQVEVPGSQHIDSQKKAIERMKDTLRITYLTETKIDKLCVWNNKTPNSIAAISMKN

With “Escherichia coli heat labile toxin A subunit, recombinant wild type (from UniProt P06717 19-258) (natural protein)”, in assay [1], the stoichiometry N (A subunit per pentameric B subunit) was determined as 1. On to “cholera toxin A subunit, recombinant wild type (natural protein)”, for which the stoichiometry N (A subunit per pentameric B subunit) in assay [2] is 1.

These data come from paper PMC2200010.
